According to patent US20180244725:

T1: R5 peptide
T1 chain: SSKKSGSYSGSKGSKRRIL

B1: Thermospermine synthase ACL5 (protein)
chain: MGEAVEVMFGNGFPEIHKATSPTQTLHSNQQDCHWYEETIDDDLKWSFALNSVLHQGTSEYQDIALLDTKRFGKVLVIDGKMQSAERDEFIYHECLIHPALLFHPNPKTVFIMGGGEGSAAREILKHTTIEKVVMCDIDQEVVDFCRRFLTVNSDAFCNKKLELVIKDAKAELEKREEKFDIIVGDLADPVEGGPCYQLYTKSFYQNILKPKLSPNGIFVTQAGPAGIFTHKEVFTSIYNTMKQVFKYVKAYTAHVPSFADTWGWVMASDHEFDVEVDEMDRRIEERVNGELMYLNAPSFVSAATLNKTISLALEKETEVYSEENARFIHGHGVAYRHI
B2: N-myrisotyltransferase 1 (NMT1) (protein)
chain: MADESETAVKPPAPPLPQMMEGNGNGHEHCSDCENEEDNSYNRGGLSPANDTGAKKKKKKQKKKKEKGSETDSAQDQPVKMNSLPAERIQEIQKAIELFSVGQGPAKTMEEASKRSYQFWDTQPVPKLGEVVNTHGPVEPDKDNIRQEPYTLPQGFTWDALDLGDRGVLKELYTLLNENYVEDDDNMFRFDYSPEFLLWALRPPGWLPQWHCGVRVVSSRKLVGFISAIPANIHIYDTEKKMVEINFLCVHKKLRSKRVAPVLIREITRRVHLEGIFQAVYTAGVVLPKPVGTCRYWHRSLNPRKLIEVKFSHLSRNMTMQRTMKLYRLPETPKTAGLRPMETKDIPVVHQLLTRYLKQFHLTPVMSQEEVEHWFYPQENIIDTFVVENANGEVTDFLSFYTLPSTIMNHPTHKSLKAAYSFYNVHTQTPLLDLMSDALVLAKMKGFDVFNALDLMENKTFLEKLKFGIGDGNLQYYLYNWKCPSMGAEKVGLVLQ

Molecular target: T1, R5 peptide

Protein	propylamination of R5 (LC-MS time course)	myristoylation of R5 (LC-MS time course)
B1	the incorporation of one thermospermine molecule into R5	
B2		A time course showing the incorporation of one myristoyl group was determined by LC-MS
